Source: patent US20030143208A1, “Oxidative stress-resistant cell lines and methods of use thereof” (priority 2002, published 2003)
“Also recorded” adds a separate entry of the source.

Legend:
[1] = test system: tyrosine hydroxylase (TH); assay: Tyrosine hydroxylase activity assay ([3H]H2O release from [3H]tyrosine) of wt- and mutant-TH, with and without peroxynitrite treatment; format: biochemical, rat; details: nitrating and oxidizing concentrations of peroxynitrite, phosphate buffer 0.1 M, DTPA 0.1 mM, pH 7.4, FIG. 3A
Method: (§1) To further confirm the site of nitration in vivo, the tyrosine residues 423, 428, and 432 were individually mutated to Phe. The Tyr423Phe, Tyr428Phe, and Tyr432Phe mutants were created with the QuikChange™ Site-Directed mutagenesis kit from Stratagene as previously described (25). Wild-type rat TH cDNA (GenBank accession no.: NM-012740) was subcloned into the mammalian pcDNA3.1+ expression vector (invitrogen) and used as the DNA template (25 ng) to create the mutants. Complete DNA sequencing data verified the presence of the appropriate mutation in the coding sequences of all recombinant proteins.
(§2) Recombinant wt- and mutant TH were isolated and purified from BL21(DE3)pLysS E. coli expressing the full-length wt-TH, Y423F-TH, Y428F-TH, or Y432F-TH cDNAs. Following isolation enzyme activity was assayed after treatment with peroxynitrite as previously described (25 and 26). Briefly, wt- or mutant-TH were exposed to several concentrations of peroxynitrite under identical conditions, in phosphate buffer 0.1 M containing DTPA 0.1 mM at pH 7.4. The activity of TH was assayed by the release of [^3H]H2O from [^3H]tyrosine in the presence of catalase. The specific activity of the partially purified Tyr423Phe mutant TH was 20% of the wild type TH. It is also shown that the enzyme activity of the wild type, and the Tyr428Phe and Tyr432Phe mutants were inhibited by exposure to nitrating and oxidizing concentrations of peroxynitrite (FIG. 3A). […] Enzymatic activity was assessed using a standard assay and the Lovenberg assay as described in (26) (FIGS. 3B and 3C).

[2] = test system: TH in cultured dopaminergic neurons; details: cultured dopaminergic neurons after MPP+ challenge; Pong et al. (22); cited from earlier work
[3] = biological target: T1, tyrosine hydroxylase (TH) (Rattus norvegicus, UniProt P04177, Y423F); assay: Tyrosine hydroxylase activity assay ([3H]H2O release from [3H]tyrosine) of wt- and mutant-TH, with and without peroxynitrite treatment; format: biochemical
T1 construct: E. coli expressing the full-length wt-TH, Y423F-TH, Y428F-TH, or Y432F-TH cDNAs; made in house; host or cells: BL21(DE3)pLysS E. coli
Method: as §1, §2

[4] = biological target: tyrosine hydroxylase (TH) (Rattus norvegicus, UniProt P04177); assay: Nitration of TH by peroxynitrite in vitro; format: biochemical; details: recombinantly purified TH treated with peroxynitrite in vitro
Excerpt: Cysteine, methionine, tryptophan and tyrosine appear to be the principal amino acids in proteins modified by peroxynitrite in vitro (9-14). To resolve the apparent differences, the reaction of peroxynitrite with recombinantly purified rat TH in vitro was re-examined and no evidence of cysteine oxidation was found. Oxidation of one cysteine residue per molecule of TH was observed only at high peroxynitrite concentrations, and three cysteine residues were oxidized in partially unfolded protein.

T1 sequence (P04177 2-498 Y423F): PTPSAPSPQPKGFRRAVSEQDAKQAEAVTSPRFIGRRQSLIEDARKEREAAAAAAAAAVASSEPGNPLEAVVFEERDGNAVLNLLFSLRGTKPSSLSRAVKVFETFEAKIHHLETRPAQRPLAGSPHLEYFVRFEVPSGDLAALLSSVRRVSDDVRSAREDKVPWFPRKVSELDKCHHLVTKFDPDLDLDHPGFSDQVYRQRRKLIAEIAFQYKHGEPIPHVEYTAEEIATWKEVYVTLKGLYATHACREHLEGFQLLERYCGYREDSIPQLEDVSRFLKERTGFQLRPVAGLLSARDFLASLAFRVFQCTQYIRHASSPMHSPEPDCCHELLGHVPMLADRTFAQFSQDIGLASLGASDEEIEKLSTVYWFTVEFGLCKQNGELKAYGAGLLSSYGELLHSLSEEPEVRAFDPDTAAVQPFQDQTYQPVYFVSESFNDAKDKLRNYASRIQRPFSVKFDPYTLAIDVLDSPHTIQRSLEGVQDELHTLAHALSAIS
Sequence of tyrosine hydroxylase (TH) (Rattus norvegicus, UniProt P04177) (P04177 whole entry): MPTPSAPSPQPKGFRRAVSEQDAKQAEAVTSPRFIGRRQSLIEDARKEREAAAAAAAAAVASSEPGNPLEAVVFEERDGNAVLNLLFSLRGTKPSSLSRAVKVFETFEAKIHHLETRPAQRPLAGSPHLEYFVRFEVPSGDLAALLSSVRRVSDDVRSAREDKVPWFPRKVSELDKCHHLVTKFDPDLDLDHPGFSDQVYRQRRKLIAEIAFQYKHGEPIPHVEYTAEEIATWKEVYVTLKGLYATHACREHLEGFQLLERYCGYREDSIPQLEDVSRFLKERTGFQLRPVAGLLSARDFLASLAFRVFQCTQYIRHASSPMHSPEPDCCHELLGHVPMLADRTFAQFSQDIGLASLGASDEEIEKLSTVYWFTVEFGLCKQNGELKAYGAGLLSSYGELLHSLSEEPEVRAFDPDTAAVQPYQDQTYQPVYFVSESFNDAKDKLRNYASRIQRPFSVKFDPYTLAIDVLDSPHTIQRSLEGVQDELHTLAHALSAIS

wild type: recombinant wild-type rat tyrosine hydroxylase (GenBank accession no. NM-012740) [reference compound]
TH enzymatic activity after exposure to peroxynitrite [1]: inhibited

Tyr428Phe: rat tyrosine hydroxylase mutant with tyrosine residue 428 mutated to Phe
TH enzymatic activity after exposure to peroxynitrite [1]: inhibited

COc1cccc(C=NCCN=Cc2cccc(OC)c2[O-])c1[O-].[Cl-].[Mn+3] [EUK134]
nitration of TH [2]: prevented nitration of TH

Tyr432Phe: rat tyrosine hydroxylase mutant with tyrosine residue 432 mutated to Phe
TH enzymatic activity after exposure to peroxynitrite [1]: inhibited

Tyr423Phe mutant TH: rat tyrosine hydroxylase in which Tyr423 was substituted with Phe
resistance to inactivation by different concentrations of peroxynitrite compared to wild type TH, Lovenberg assay ([3]; cell lysates, Lovenberg assay, FIG. 3C): resist inactivation | resistance to inactivation by different concentrations of peroxynitrite compared to wild type TH ([3]; cell lysates, standard assay, FIG. 3B): resist inactivation | specific activity relative to wild type TH ([3]; partially purified protein, % of the wild type TH): 20% | TH enzymatic activity after exposure to peroxynitrite ([1]; listed as Tyr423 Phe mutant): no significant loss of enzymatic activity | TH enzymatic activity after exposure to peroxynitrite ([1]; listed as Tyr423Phe mutant): no loss in TH enzymatic activity; also recorded: unaffected | nitration by peroxynitrite [4]: lack of nitration
